T1: myc-tagged Tdrd2, Q80VL1
T1 chain: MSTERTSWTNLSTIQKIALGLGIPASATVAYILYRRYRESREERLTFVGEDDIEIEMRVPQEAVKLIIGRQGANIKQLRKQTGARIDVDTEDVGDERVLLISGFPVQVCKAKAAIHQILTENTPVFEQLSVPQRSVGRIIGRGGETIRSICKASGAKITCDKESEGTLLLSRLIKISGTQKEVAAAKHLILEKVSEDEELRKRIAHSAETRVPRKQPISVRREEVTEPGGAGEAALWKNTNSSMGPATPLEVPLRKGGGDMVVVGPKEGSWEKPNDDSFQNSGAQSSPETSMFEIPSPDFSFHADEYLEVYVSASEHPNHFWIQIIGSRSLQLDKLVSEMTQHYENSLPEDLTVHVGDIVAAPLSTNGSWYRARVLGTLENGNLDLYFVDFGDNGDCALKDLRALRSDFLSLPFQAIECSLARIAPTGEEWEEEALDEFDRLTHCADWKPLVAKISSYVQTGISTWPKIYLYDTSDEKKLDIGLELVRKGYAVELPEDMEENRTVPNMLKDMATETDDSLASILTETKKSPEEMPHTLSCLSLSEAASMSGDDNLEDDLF


How the values were obtained:
Experiment in all cases: co-IP
[1] = target: T1, myc-tagged Tdrd2, Q80VL1; details: remark: other sources report otherwise
[2] = target: FLAG-tagged Mili N-terminal domain (mouse)
[3] = target: FLAG-tagged Mili region containing the PAZ, Mid, and Piwi domains (mouse)

fold weaker interaction than with Tdrd1 [1] | co-IP of Tdrd1 as percent of full-length Mili [2] | binding as percent of the wildtype level [3] | Binder
20 fold |  |  | FLAG-tagged Mili, Q8CDG1 1-971 (natural protein) MDPVRPLFRGPTPVHPSQCVRMPGCWPQAPRPLEPAWGRAGPAGRGLVFRKPEDSSPPLQPVQKDSVGLVSMFRGMGLDTAFRPPSKREVPPLGRGVLGRGLSANMVRKDREEPRSSLPDPSVLAAGDSKLAEASVGWSRMLGRGSSEVSLLPLGRAASSIGRGMDKPPSAFGLTARDPPRLPQPPALSPTSLHSADPPPVLTMERKEKELLVKQGSKGTPQSLGLNLIKIQCHNEAVYQYHVTFSPSVECKSMRFGMLKDHQSVTGNVTAFDGSILYLPVKLQQVVELKSQRKTDDAEISIKIQLTKILEPCSDLCIPFYNVVFRRVMKLLDMKLVGRNFYDPTSAMVLQQHRLQIWPGYAASIRRTDGGLFLLADVSHKVIRNDSVLDVMHAIYQQNKEHFQDECSKLLVGSIVITRYNNRTYRIDDVDWNKTPKDSFVMSDGKEITFLEYYSKNYGITVKEDDQPLLIHRPSERQNNHGMLLKGEILLLPELSFMTGIPEKMKKDFRAMKDLTQQINLSPKQHHGALECLLQRISQNETASNELTRWGLSLHKDVHKIEGRLLPMERINLRNTSFVTSEDLNWVKEVTRDASILTIPMHFWALFYPKRAMDQARELVNMLEKIAGPIGMRISPPAWVELKDDRIETYIRTIQSLLGVEGKIQMVVCIIMGTRDDLYGAIKKLCCVQSPVPSQVINVRTIGQPTRLRSVAQKILLQMNCKLGGELWGVDIPLKQLMVIGMDVYHDPSRGMRSVVGFVASINLTLTKWYSRVVFQMPHQEIVDSLKLCLVGSLKKYYEVNHCLPEKIVVYRDGVSDGQLKTVANYEIPQLQKCFEAFDNYHPKMVVFVVQKKISTNLYLAAPDHFVTPSPGTVVDHTITSCEWVDFYLLAHHVRQGCGIPTHYICVLNTANLSPDHMQRLTFKLCHMYWNWPGTIRVPAPCKYAHKLAFLSGQILHHEPAIQLCGNLFFL
 | 76% | 11% | myc-tagged Tdrd1 (natural protein) MMPRNNLEASTCKMAEPFNFEKKESKPPPQDPLRSPVAQHNHPTFRLKSPENGNTKNNFLLCEQNKQYLASQEDSSVVSSNPAVVNGEVGGSKGDRKPPPTGNPVSPLSLGNSSPPNQVKTKPSSNVTPEKSKKSHKLFENALSVNNPALFNSLGPPLRSTTCHRCGLFGSLRCSQCKQTYYCSTACQRRDWSSHSTICRPVQQSLNKLEDNKSPFETKAIEVKSEVDCPPGVTKEITAGAERVMFSDLRSLQLKKTMEIKGTVTEFKHPSNFYIQLYSSEVLENMNQLSTSLKETYANVVPEDGYLPVKGEVCVAKYTVDQTWNRAIVQAVDVLQRKAHVLYIDYGNEEMIPIDSVHPLSRGLDLFPPSAIKCCVSGVIPTAGEWSEGCVAAVKALLFEQFCSVKVMDILEEEVLTCAVDLVLQSSGKQLDHVLVEMGYGVKPGEQSSTEQSVDHSALEDVGRVTVESKIVTDRNALIPKVLTLNVGDEFCGVVAHIQTPEDFFCQQLQSGHKLAELQESLSEYCGHVIPRSDFYPTIGDVCCAQFSEDDQWYRASVLAYASEESVLVGYVDYGNFEILSLKRLCPIIPKLLDLPMQALNCVLAGVKPSLGIWTPEAVCVMKEMVQNRMVTVRVVGMLGTRALVELIDKSVAPHVSASKALIDSGFAIKEKDVADKGSSMHTASVPLAIEGPAEALEWTWVEFTVDETVDVVVCMMYSPGEFYCHFLKDDALEKLDDLNQSLADYCAQKPPNGFKAEIGRPCCAFFSGDGNWYRALVKEILPSGNVKVHFVDYGNVEEVTTDQLQAILPQFLLLPFQGMQCWLVDIQPPNKHWTKEATARFQACVVGLKLQARVVEITANGVGVELTDLSTPYPKIISDVLIREQLVLRCGSPQDSLMSRPANQHKQIDSHRVQASPSAEQWKTMELPVNKTIAANVLEIISPALFYAIPSEMSENQEKLCVLAAELLEHCNAQKGQPAYRPRTGDACCAKYTNDDFWYRAIVLETSESDVKVLYADYGNIETLPLSRVQPIPASHLELPFQIIRCSLEGPMELNGSCSQLVMELLRNAMLNQSVVLSVKAISKNVHAVSVEKCSENGMINIAENLVMCGLAENLTSKRKSASTKEIPHSRDCCCTELQKQIEKHEQILLFLLNNPTNQSKFTEMKKLLRS
